Where two headings read alike, the source gives them in different places.
Columns and labels:
[1] = target: T1, human claudin 18 isoform 1 (claudin 18.1) (human, UniProt P56856 1-261); test: immunofluorescence imaging on CHO cells expressing human CLDN18.1, antibody at 10 µg/ml
T1 construct: Recombinant on transfected CHO cells (CHO-CLDN18.1); also called CLDN18.1
Protocol: (§1) The specific cellular binding affinity of anti-Claudin18.2 antibodies was tested on CHO-CLDN18.2 (transfected CHO cell expressing recombinant human CLDN18.2) and CHO-CLDN18.1 (transfected CHO cell expressing recombinant human CLDN18.1) cells. The cells were plated in complete media containing F12 with 10% FBS, then incubated overnight at 37° C., anti-Claudin18.2 antibodies were serial diluted and added to the assay plates, incubated at 4° C. for 2 hours, followed by fixing cells and further staining the cells for 30 minutes with Alexa Fluor® 488 Goat Anti-Human IgG (H+L) secondary antibody, invitrogen Cat #A-11013 for detection. The binding was assessed by imaging the cells and quantifying the fluorescence intensity using a Biotek Cytation.

[2] = target: human claudin 18 isoform 2 (claudin 18.2) (human); test: cell-based or functional assay
[3] = target: T2, human claudin 18 isoform 2 (claudin 18.2) (human); test: immunofluorescence imaging, CHO-CLDN18.2 cells, serial dilution
T2 construct: Recombinant on transfected CHO cells (CHO-CLDN18.2) or endogenous on tumor cell lines PATU8988S, NUGC-4, KATOIII; the cell line is named under assay; also called CLDN18.2
Protocol: as §1

[4] = target: T2, human claudin 18 isoform 2 (claudin …); test: imaging, PATU8988S cells (endogenous CLDN18.2); +++ = EC50 between 2 nM and 20 nM
[5] = target: T2, human claudin 18 isoform 2 (claudin …); test: cell-based or functional assay; remark: listed apart in the source
[6] = target: T2, human claudin 18 isoform 2 (claudin …); test: cell-based or functional assay; remark: listed apart in the source
[7] = target: T2, human claudin 18 isoform 2 (claudin …); test: cell-based or functional assay; remark: listed apart in the source
[8] = target: T1, human claudin 18 isoform 1 (claudin …); test: imaging, CHO-CLDN18.1 cells, single concentration (FIG. 3A)
Protocol: as §1

T1 sequence (P56856 whole entry, canonical isoform): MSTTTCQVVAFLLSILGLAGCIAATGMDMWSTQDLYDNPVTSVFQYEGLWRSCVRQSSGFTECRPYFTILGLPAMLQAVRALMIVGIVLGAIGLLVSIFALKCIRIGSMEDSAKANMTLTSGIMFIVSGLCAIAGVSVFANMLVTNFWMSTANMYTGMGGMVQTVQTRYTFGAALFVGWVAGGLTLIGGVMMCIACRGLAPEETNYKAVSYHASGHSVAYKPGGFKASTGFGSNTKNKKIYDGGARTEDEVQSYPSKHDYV

Row | binding result [1] | EC50 [3] [nM] | EC50 [4] [nM] | Binder | endocytosis derived cell toxicity EC50, CHO-18.2 cells (anti-IgG Fc-MMAF co-internalization) [2] [nM] | further results
1 | no binding (tested: 10 µg/ml) | 1.2 | 2 to 20 | Ms1 (antibody, V domains shown) VH: EIQLQQSGPELVKPGASVKVSCKASGYAYTRYNMYWVKQSHGKSLEWIGYIDPYNGGTNYNQKFKGKATLTVDKSSSTAYMHLNSLTSEDSAVYYCARGGYYGNAMDYWGQGTSVTVSS VL: DIVMTQSPSSLTVTAGEKVTMSCKSSQSLLNSGNQKNYLTWYQQKPGQPPKLLIYWASTRESGVPDRFTGSGSGTDFTLTISSVQAEDLSIYYCQSNYIYPFTFGAGTTLELQ | 1.09 | –
2 | no binding (tested: 10 µg/ml) | 1.4 | 2 to 20 | Ms7 (antibody, V domains shown) VH: EVKLVESGGDLVQPGGSLRLSCTTPGFTFSDFYMEWVRQPPGKRLEWIAASRNKANDYTTENSASVKGRFIVSRDTSQSILYLQMNALRAEDTAIYYCARDACPWDWFAYWGQGTLVTVSA VL: DIVMTQSPSSLTVTAGEKVTMSCKSSQSLLNSGNQKNYLTWYQQKPGQPPKLLIYWASTRESGVPDRFTGSGSGTDFTLTISSVQAEDLAVYYCQNDYSYPFTFGSGTKLEIK | 1.12 | –
3 | no binding (tested: 10 µg/ml) | 1.8 | 2 to 20 | Ms3 (antibody, V domains shown) VH: EVMLVESGGGIVKPGGSLKLSCAASGFTLSSYTMSWVRQTPERRLEWVATIIIGGSYTYYPDSVKGRFTISRDNAKNTLYLQMSSLRSEDTAMYYCARQGYGNSFPYWGQGTLVTVSA VL: DIVMTQSPSSLTVTAGEKVTMSCKSSQSLLNSGNQKNYLTWYQQKPGQPPKLLIYWASTRESGVPDRFTGSGSGTDFTLTISSVQAEDLAVYYCQNDYSYPFTFGSGTKLEIK | 1.14 | –
4 | no binding (tested: 10 µg/ml) | 1.5 | 2 to 20 | Ms8 (antibody, V domains shown) VH: EIQLQQSGPELVKPGASVKVSCKASDYAFTRYNMYWVKQSHGKSLEWIGYIDPYNGGTNYNQKFKGKATLTVDKSSSTAYMHLNSLTSEDSAVYYCARGGYYGNAMDYWGQGTSVTVSS VL: DIVMTQSPSSLTVTAGEKVTMSCKSSQSLLNSGNQKNYLTWYQQKPGQPPQLLIYWASTRESGVPDRFTGSGSGTDFTLTISSVQAEDLSIYYCQSNYIYPFTFGAGTTLELQ | 1.08 | –
5 | no binding (tested: 10 µg/ml) | 1.7 | 2 to 20 | Ms5 (antibody, V domains shown) VH: QVQLQQPGAELVKPGASVKLSCKASGYTFTRYLMHWVKQRPGQGLEWIGEINPSNGRTNYNEKFKSKAALTVDKSSSTAYMQLSSLTSEDSAVYYCARLAYGYGNAVDYWGQGTSVTVSS VL: DIVMTQSPSSLSVSAGEKVTMSCKSSQSLLNSGNQKNYLAWYQQKPGQPPKLLIYGASTRESGVPDRFTGSGSGTDFTLTISSVQAEDLAVYYCQNDHSYPLTFGAGTKLELK | 1.43 | –
6 | no binding (tested: 10 µg/ml) | 1.2 | 2 to 20 | Ms6 (antibody, V domains shown) VH: QVQLQQSGAELAKPGASVKMSCRASGYTFTSYLMHWIKQRPGQALEWIGYINPTTDYTEYNQKFKGKATLTADKSSSTAYMQLSSLTSEDSAVYYCGRLGYYKRNAMDHWGQGTSVTVSS VL: DIVMTQSPSSLSVSAGEKVTMSCKSSQSLLNSGNQKNYLAWYQQKPGQPPKLLIYGASTRESGVPDRFTGSGSGTDFTLTISSVQAEDLAVYYCQNDHFYPLTFGAGTKLELK | 1.26 | –
7 | no binding (tested: 10 µg/ml) | 1.3 | 2 to 20 | Ms10 (antibody, V domains shown) VH: EVQLQQSGPELEKPGASVKISCKASGYSFTGYKMNWVKQSNGKSLEWIGHIDPYYGGPRYNKKFMGKATLTVDRSSSTAYMQLKSLTSEDSAVYYCARLDYGNSFAYWGQGTLVTVSA VL: DIVMTQSPSSLSVSAGEKVTMSCKSSQSLLNSGNQKNYLAWYQQKPGQPPKLLIYGASTRESGVPDRFTGSGSGTDFTLTISSVQAEDLAVYYCQNDHSYPFTFGGGTKLEIK | 0.96 | –
8 | – | 19 | – | Hu-14 (antibody, V domains shown) VH: EVQLLESGGGLVQPGGSLRLSCAASGITFSSYAMSWVRQVPGKGLEWVSVISGSGGSTYYADSVKGRFTISRDNSKNTLYLQMNSLRAEDTAVYYCAKDRGYDILTTYYDYFYGMDVWGQPEFQHTGG VL: DIQMTQSPSSLSASVGDRVIITCRASQGIRNDLGWYQQKPGKAPKRLIYAASSLQSGVPSRFSGSGSGTEFTLTISSLQPEDLASYYCLQHNSYPYTFGQGTKLEIK | – | endocytosis derived cell toxicity EC50, CHO-18.2 cells (anti-IgG Fc-MMAF co-internalization) [5]: 1.51 nM; ADCC EC50, CHO-18.2 target cells (mouse FcγRIV reporter bioluminescence) [6]: 1.51 nM
9 | no binding (tested: 10 µg/ml) | 4.5 | – | Hu-5 (antibody, V domains shown) VH: QVQLVQSGAEVKKPGASVKVSCEASGYTFTSSYMHWVRQAPGQGLEWMGIINPSGGRTNYAQKFQGRVTMTRDTSTSTVYMELSSLRSEDTAVYYCARDHYDIFTTYYPRGMDVWGQGTTVTVSS VL: DIQMTQSPSSLSASVGDRVTITCRASQGIRNDLGWYQQKPGKAPKRLIYAASSLQSGVPSRFSGSGSGTEFTLTISSLQPEDFTTYYCLQHNSFPFTFGQGTELEIR | – | endocytosis derived cell toxicity EC50, CHO-18.2 cells (anti-IgG Fc-MMAF co-internalization) [5]: 13.4 nM; ADCC EC50, CHO-18.2 target cells (mouse FcγRIV reporter bioluminescence) [6]: 7.09 nM
10 | no binding (tested: 10 µg/ml) | 12 | – | Hu-16 (antibody, V domains shown) VH: EVQLLESGGGVVQPGGSLRLSCAASGLIFSSYAMSWVRQAPGKGLEWVSVIGGSGSNTFYADSVKGRFTISRDNSKNTLFLQMNSLRAEDTAVYYCAKDRGYDILTGYYNYYYGMDVWGQGITVTVSS VL: DIQMTQSPSSLSASVGDRVTITCRASQGIRNDLGWYQQKPGKAPKRLIYAASSLQSGVPSRFSGSGSGTEFTLTISSLQPEDFATYYCLQHNSYPYTFGQGTKLEIK | – | endocytosis derived cell toxicity EC50, CHO-18.2 cells (anti-IgG Fc-MMAF co-internalization) [5]: 3.09 nM; ADCC EC50, CHO-18.2 target cells (mouse FcγRIV reporter bioluminescence) [6]: 3.09 nM
11 | – | – | – | NBL-014G (antibody, human IgG1, kappa, V domains shown, low, or no IgG core fucose (non- or afucosylated)) VH: EVQLLESGGGLVQPGGSLRLSCAASGFTFSSFAMTWVRQAPGKGLEWVSSLSGSGRSTYYAASMKGRFTISRDNSKNTLYLQMNSLRAEDTAIYYCAKSLSYYHYYFDYWGQGTLVTVTS VL: DIQLTQSPSFLSASVGDRVPITCRASQGISNFLAWYQQKPGKAPELLIHSASTLQSGVPSRFSGSGSGTEFTLTISNLQPQDFATYYCQQVNSYPLTFGGGTKVEIKR | – | ADCC EC50, CHO-claudin18.2 cells (human FcγRIIIa reporter bioluminescence) [7]: 0.02 nM; ADCC EC50, NUGC-4 cells (human FcγRIIIa reporter bioluminescence) [7]: 0.06 nM; ADCC EC50, PATU8988S cells (human FcγRIIIa reporter bioluminescence) [7]: 0.04 nM; CDC EC50, CHO-claudin18.2 cells (human serum, flow cytometry) [7]: 0.3 nM; fold improvement of ADCC EC50 over parental NBL-014, CHO-claudin18.2 cells (human FcγRIIIa reporter bioluminescence) [7]: 35 fold; fold upshift of maximum ADCC effect over parental NBL-014, NUGC-4 cells (human FcγRIIIa reporter bioluminescence) [7]: ~3 fold; fold upshift of maximum ADCC effect over parental NBL-014, PATU8988S cells (human FcγRIIIa reporter bioluminescence) [7]: ~33 fold
12 | – | – | – | NBL-014 (antibody, human IgG1, kappa, V domains shown) VH: EVQLLESGGGLVQPGGSLRLSCAASGFTFSSFAMTWVRQAPGKGLEWVSSLSGSGRSTYYAASMKGRFTISRDNSKNTLYLQMNSLRAEDTAIYYCAKSLSYYHYYFDYWGQGTLVTVTS VL: DIQLTQSPSFLSASVGDRVPITCRASQGISNFLAWYQQKPGKAPELLIHSASTLQSGVPSRFSGSGSGTEFTLTISNLQPQDFATYYCQQVNSYPLTFGGGTKVEIKR | – | ADCC EC50, CHO-claudin18.2 cells (human FcγRIIIa reporter bioluminescence) [7]: 0.73 nM; ADCC EC50, NUGC-4 cells (human FcγRIIIa reporter bioluminescence) [7]: 0.4 nM; ADCC EC50, PATU8988S cells (human FcγRIIIa reporter bioluminescence) [7]: 0.12 nM; CDC EC50, CHO-claudin18.2 cells (human serum, flow cytometry) [7]: 0.22 nM; fold improvement of CDC EC50 over PC1 (in-house iMAb36), CHO-claudin18.2 cells (human serum, flow cytometry) [7]: ~10 fold
13 | – | 1.2 | 2 to 20 | Ms13 (antibody, V domains shown) VH: EVQLQQSGPELVKPGASVKMSCKASGYTFTRYIMHWVKQKPGQGLEWIGYFNPYNDDSKTSEKFKGKATLTSDKSSSTAYMEINSLTSEDSAVYYCAKLRQERIAYWGQGTLVTVSA VL: DIQMNQSPSSLSASLGDTITITCHASQNIDVWLSWYQQKPGNFPKLLIYKASNLHTGVPSRFSGSGSGTGFTLTISSLQPEDIATYYCQQGQSYPLTFGAGTKLELK | 0.71 | binding result [8]: no binding (tested: 10 µg/ml)
14 | no binding (tested: 10 µg/ml) | 2 | 2 to 20 | Ms12 (antibody, V domains shown) VH: EIQLQQSGPELVKPGASVKVSCKASGYAFASYKMYWVKQSHGKSLEWIGYIDPYNGVTSYNQKFRGKATLTVDKSSSTAYMHLNSLTSEDSAVYYCARGAYYGNSFDYWGQGTTLTVSS VL: DIVMTQSPSSLTVTAGEKVTMSCKSSQSLLNSGNQKNYLTWYQQQPGQPPKLLIYWASTRESGVPDRFTGSGSGTDFTLTISSVQAVDLAVYYCQSAYSFPYTFGGGTKLEVK | 1.07 | –

— patent US20230067757A1 (NOVAROCK BIOTHERAPEUTICS, published 2023)
